Experimental findings from paper doi:10.1101/2021.11.30.470528 are described below.

This experiment addresses GST affinity tag. Kind of experiment: SEC. (In gel filtration, larger molecules generally elute earlier.)

Sequence of GST affinity tag (P08515 2-218): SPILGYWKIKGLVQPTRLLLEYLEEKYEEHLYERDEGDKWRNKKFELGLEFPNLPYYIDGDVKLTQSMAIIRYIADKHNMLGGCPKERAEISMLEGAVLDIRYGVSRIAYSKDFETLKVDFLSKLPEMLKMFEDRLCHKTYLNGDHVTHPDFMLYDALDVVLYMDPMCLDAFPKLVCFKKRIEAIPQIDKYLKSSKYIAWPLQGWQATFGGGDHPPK

Take GST affinity tag: the stoichiometry N (in general, the number of molecules, sites or subunits per partner or assembly) was 2.
